In patent US11306156:
Values joined by “and” are separate entries in the source; they are usually repeats but may differ in a detail not shown here. Identical values can stand only once.

What was measured:
[1] = target: tissue factor (TF) antigen (UniProt P13726); assay: SPR; Fab captured by anti-His, TF as analyte; LCCA set 9058
[2] = target: D3H44 light chain Q124R_T178R (Kabat) with N-terminal HA or FLAG tag; assay: LCCA, SPR read-out of light-chain tags; light-chain DNA 1:9 normalized to 1:1; competing light chain m17
[3] = target: D3H44 light chain Q124E_Q160E_T180E (Kabat) with N-terminal HA or FLAG tag; assay: LCCA, SPR read-out of light-chain tags; light-chain DNA 1:3 normalized to 1:1; competing light chain m18
[4] = target: D3H44 light chain Q124E_Q160E_T180E (Kabat) with N-terminal HA or FLAG tag; assay: LCCA, SPR read-out of light-chain tags; light-chain DNA 1:9 normalized to 1:1; competing light chain m21
[5] = target: D3H44 light chain Q124E_Q160E_T180E (Kabat) with N-terminal HA or FLAG tag; assay: LCCA, SPR read-out of light-chain tags; light-chain DNA 1:3 normalized to 1:1; competing light chain m16
[6] = target: D3H44 light chain Q124E_Q160E_T180E (Kabat) with N-terminal HA or FLAG tag; assay: LCCA, SPR read-out of light-chain tags; light-chain DNA 1:3 normalized to 1:1; competing light chain m20
[7] = target: D3H44 light chain Q124E_Q160E_T180E (Kabat) with N-terminal HA or FLAG tag; assay: LCCA, SPR read-out of light-chain tags; light-chain DNA 1:3 normalized to 1:1; competing light chain m21
[8] = target: D3H44 light chain Q124R_T178R (Kabat) with N-terminal HA or FLAG tag; assay: LCCA, SPR read-out of light-chain tags; light-chain DNA 1:3 normalized to 1:1; competing light chain m17
[9] = target: D3H44 light chain Q124R_Q160K_T178R (Kabat) with N-terminal HA or FLAG tag; assay: as above
[10] = target: D3H44 light chain Q124K_T178R (Kabat) with N-terminal HA or FLAG tag; assay: as above
[11] = target: D3H44 light chain T178R (Kabat) with N-terminal HA or FLAG tag; assay: as above
[12] = target: D3H44 light chain Q124E_V133E_Q160F (Kabat) with N-terminal HA or FLAG tag; assay: LCCA, SPR read-out of light-chain tags; light-chain DNA 1:3 normalized to 1:1; competing light chain m23
[13] = target: D3H44 light chain Q124R (Kabat) with N-terminal HA or FLAG tag; assay: LCCA, SPR read-out of light-chain tags; light-chain DNA 1:3 normalized to 1:1; competing light chain m24
[14] = target: D3H44 light chain Q124E_Q160E_T180E (Kabat) with N-terminal HA or FLAG tag; assay: LCCA, SPR read-out of light-chain tags; light-chain DNA 1:3 normalized to 1:1; competing light chain m26
[15] = target: D3H44 light chain Q124E_T180E (Kabat) with N-terminal HA or FLAG tag; assay: LCCA, SPR read-out of light-chain tags; light-chain DNA 1:3 normalized to 1:1; competing light chain m18
[16] = target: D3H44 light chain T178R (Kabat) with N-terminal HA or FLAG tag; assay: LCCA, SPR read-out of light-chain tags; light-chain DNA 1:3 normalized to 1:1; competing light chain m19
[17] = target: D3H44 light chain Q124R_T178K (Kabat) with N-terminal HA or FLAG tag; assay: LCCA, SPR read-out of light-chain tags; light-chain DNA 1:3 normalized to 1:1; competing light chain m17
[18] = target: tissue factor (TF) antigen (UniProt P13726); assay: SPR; Fab captured by anti-His, TF as analyte; LCCA set 9054
[19] = target: tissue factor (TF) antigen (UniProt P13726); assay: SPR; Fab captured by anti-His, TF as analyte; LCCA set 9053
[20] = target: D3H44 light chain Q124R_Q160K_T178R (Kabat) with N-terminal HA or FLAG tag; assay: LCCA, SPR read-out of light-chain tags; light-chain DNA 1:3 normalized to 1:1; competing light chain m29
[21] = target: D3H44 light chain Q124E_S131T_T178Y_T180E (Kabat) with N-terminal HA or FLAG tag; assay: LCCA, SPR read-out of light-chain tags; light-chain DNA 1:3 normalized to 1:1; competing light chain m20
[22] = target: D3H44 light chain Q124E_S176L_T180E (Kabat) with N-terminal HA or FLAG tag; assay: as above
[23] = target: D3H44 light chain Q124E_S131T_T178F_T180E (Kabat) with N-terminal HA or FLAG tag; assay: as above
[24] = target: D3H44 light chain Q124R_Q160K_T178R (Kabat) with N-terminal HA or FLAG tag; assay: LCCA, SPR read-out of light-chain tags; light-chain DNA 1:3 normalized to 1:1; competing light chain m22
[25] = target: D3H44 light chain Q124R_Q160K_T178R (Kabat) with N-terminal HA or FLAG tag; assay: LCCA, SPR read-out of light-chain tags; light-chain DNA 1:3 normalized to 1:1; competing light chain m28
[26] = target: tissue factor (TF) antigen (UniProt P13726); assay: SPR; Fab captured by anti-His, TF as analyte; LCCA set 9823
[27] = target: tissue factor (TF) antigen (UniProt P13726); assay: SPR (ProteOn), Fab captured on anti-penta-His, TF as analyte, 1:1 fit; estimated value (*) taken from the same Fab with another L chain tag
[28] = target: tissue factor (TF) antigen (UniProt P13726); assay: SPR (ProteOn), Fab captured on anti-penta-His, TF as analyte, 1:1 fit
[29] = target: tissue factor (TF) antigen (UniProt P13726); assay: SPR; Fab captured by anti-His, TF as analyte; LCCA set 9820
[30] = target: tissue factor (TF) antigen (UniProt P13726); assay: SPR; Fab captured by anti-His, TF as analyte; LCCA set 9819
[31] = target: tissue factor (TF) antigen (UniProt P13726); assay: SPR; Fab captured by anti-His, TF as analyte; LCCA set 9822
[32] = target: D3H44 light chain Q124R_T178R (Kabat) with N-terminal HA or FLAG tag; assay: LCCA, SPR read-out of light-chain tags; light-chain DNA 1:3 normalized to 1:1; competing light chain m22
[33] = target: D3H44 light chain Q124E_S131T_T178F_T180E (Kabat) with N-terminal HA or FLAG tag; assay: LCCA, SPR read-out of light-chain tags; light-chain DNA 1:3 normalized to 1:1; competing light chain m21

Substance “D3H44 Fab heterodimer, H A139W_L143E_K145T_Q179E / L F116A_Q124R_L135V (H1L1 Fab of LCCA set 9058)” has a Change in KD with respect to wild type (-(log(KD design) - log(KD wt))) [1] of 0.12 and a Kd [1] of 0.12 nM.

With “D3H44 Fab heavy chain L143E_K145T_Q179D (Kabat) with C-terminal ABD2-His6 tag” the H1L1:H1L2 normalized median ratio [2] was 82%, the H1L1:H1L2 normalized median scalar value ln(r1/f1) [2] was 1.55 and the H1L1:H1L2 normalized median ratio [3] was 24%. It also gave an H1L1:H1L2 normalized median ratio [4] of 18%, an H1L1:H1L2 normalized median ratio [5] of 14% and an H1L1:H1L2 normalized median ratio [6] of 16%. It also gave an H1L1:H1L2 normalized median ratio [7] of 13%, an H1L1:H1L2 normalized median ratio [8] of 87% and an H1L1:H1L2 normalized median scalar value ln(r1/f1) [8] of 1.9. For the same substance, the H1L1:H1L2 normalized median ratio [9] was 84%, the H1L1:H1L2 normalized median scalar value ln(r1/f1) [9] was 1.68 and the H1L1:H1L2 normalized median ratio [10] was 86%. It also gave an H1L1:H1L2 normalized median scalar value ln(r1/f1) [10] of 1.78, an H1L1:H1L2 normalized median ratio [11] of 76% and an H1L1:H1L2 normalized median scalar value ln(r1/f1) [11] of 1.13.

“D3H44 Fab heavy chain L143R (Kabat) with C-terminal ABD2-His6 tag” was tested, and the H2L2:H2L1 normalized median ratio [12] was 83% and the H2L2:H2L1 normalized median ratio [13] was 17%.

Work on “D3H44 Fab heavy chain L143E_K145T_Q179E (Kabat) with C-terminal ABD2-His6 tag” yielded an H1L1:H1L2 normalized median ratio [14] of 17%, an H1L1:H1L2 normalized median ratio [3] of 11% and an H1L1:H1L2 normalized median ratio [15] of 40%. The H1L1:H1L2 normalized median ratio [5] was 12% and 17%, the H1L1:H1L2 normalized median ratio [6] was 16% and the H1L1:H1L2 normalized median ratio [16] was 60%. It also gave an H1L1:H1L2 normalized median scalar value ln(r1/f1) [16] of 0.41, an H1L1:H1L2 normalized median ratio [17] of 83% and an H1L1:H1L2 normalized median scalar value ln(r1/f1) [17] of 1.62. For the same substance, the H1L1:H1L2 normalized median ratio [9] was 84%, the H1L1:H1L2 normalized median scalar value ln(r1/f1) [9] was 1.65 and the H1L1:H1L2 normalized median ratio [10] was 88%. The H1L1:H1L2 normalized median scalar value ln(r1/f1) [10] was 2, the H1L1:H1L2 normalized median ratio [11] was 89% and the H1L1:H1L2 normalized median scalar value ln(r1/f1) [11] was 2.14.

“D3H44 Fab heterodimer, H A139G_Q179K_V190A / L Q124E_L135W_Q160E_T180E (H1L1 Fab of LCCA sets 9053, 9054)” showed a Change in KD with respect to wild type (-(log(KD design) - log(KD wt))) [18] of 0.05, a Kd [18] of 0.14 nM and a Change in KD with respect to wild type (-(log(KD design) - log(KD wt))) [19] of 0.05. For the same substance, the Kd [19] was 0.14 nM.

For “D3H44 Fab heavy chain L143E_K145T_S188L (Kabat) with C-terminal ABD2-His6 tag”, the H1L1:H1L2 normalized median ratio [20] was 74%, the H1L1:H1L2 normalized median scalar value ln(r1/f1) [20] was 1.03 and the H1L1:H1L2 normalized median ratio [21] was 26%. It also gave an H1L1:H1L2 normalized median ratio [22] of 43%, an H1L1:H1L2 normalized median ratio [23] of 41% and an H1L1:H1L2 normalized median ratio [24] of 59%. It also gave an H1L1:H1L2 normalized median scalar value ln(r1/f1) [24] of 0.37, an H1L1:H1L2 normalized median ratio [25] of 57% and an H1L1:H1L2 normalized median scalar value ln(r1/f1) [25] of 0.28.

Work on “D3H44 Fab heterodimer, H Q39R_H172R_Q179K / L Q38E_Q124E_Q160E_T180E (H1L1 Fab of LCCA set 9823)” yielded a Change in KD with respect to wild type (-(log(KD design) - log(KD wt))) [26] of -0.18 and a Kd [26] of 0.24 nM.

“D3H44 Fab heterodimer, H L143E_K145T_S188L / L Q124R” gave a Change in KD with respect to wild type (-(log(KD design) - log(KD wt))) [27] of -0.12, a Kd [27] of 0.21 nM and a Change in KD with respect to wild type (-(log(KD design) - log(KD wt))) [28] of -0.12. The Kd [28] was 0.21 nM.

With “D3H44 Fab heterodimer, H Q39E_L143E_K145T_Q179E / L Q38R_Q124R_Q160K_T178R (H1L1 Fab of LCCA set 9820)” the Change in KD with respect to wild type (-(log(KD design) - log(KD wt))) [29] was -0.1 and the Kd [29] was 0.2 nM.

Substance “D3H44 Fab heterodimer, H Q39E_L143E_K145T_H172R_Q179E / L Q38R_Q124R_Q160K_T178R (H1L1 Fab of LCCA set 9819)” has a Change in KD with respect to wild type (-(log(KD design) - log(KD wt))) [30] of 0.03 and a Kd [30] of 0.15 nM.

With “D3H44 Fab heterodimer, H Q39R_D146G_Q179K / L Q38E_Q124E_Q160E_T180E (H1L1 Fab of LCCA set 9822)” the Change in KD with respect to wild type (-(log(KD design) - log(KD wt))) [31] was 0.17 and the Kd [31] was 0.11 nM.

Substance “D3H44 Fab heavy chain L143E_K145T_Q179E_S188L (Kabat) with C-terminal ABD2-His6 tag” has an H1L1:H1L2 normalized median ratio [32] of 77%, an H1L1:H1L2 normalized median scalar value ln(r1/f1) [32] of 1.19 and an H1L1:H1L2 normalized median ratio [33] of 23%.
